Laboratory results taken from publication PMC8624154.

Biological target: recombinant extracellular domain of rabies virus glycoprotein (RABVG, CVS strain) with T4 fibritin t (rabies virus (CVS strain))
Assay: SEC; rRABVG on Superdex 200 10/300 GL after HisTrap; single peak

## recombinant extracellular domain of rabies virus glycoprotein (RABVG, CVS strain) with T4 fibritin t (domain or fragment)
  stoichiometry N: 3
